Reference: patent US20180369375A1 (Merck Sharp & Dohme, published 2018)

T1: human LAG3 (expressed on cells) (human)
T1 construct: also called Hu LAG3; human LAG3 transfectants
T1 chain: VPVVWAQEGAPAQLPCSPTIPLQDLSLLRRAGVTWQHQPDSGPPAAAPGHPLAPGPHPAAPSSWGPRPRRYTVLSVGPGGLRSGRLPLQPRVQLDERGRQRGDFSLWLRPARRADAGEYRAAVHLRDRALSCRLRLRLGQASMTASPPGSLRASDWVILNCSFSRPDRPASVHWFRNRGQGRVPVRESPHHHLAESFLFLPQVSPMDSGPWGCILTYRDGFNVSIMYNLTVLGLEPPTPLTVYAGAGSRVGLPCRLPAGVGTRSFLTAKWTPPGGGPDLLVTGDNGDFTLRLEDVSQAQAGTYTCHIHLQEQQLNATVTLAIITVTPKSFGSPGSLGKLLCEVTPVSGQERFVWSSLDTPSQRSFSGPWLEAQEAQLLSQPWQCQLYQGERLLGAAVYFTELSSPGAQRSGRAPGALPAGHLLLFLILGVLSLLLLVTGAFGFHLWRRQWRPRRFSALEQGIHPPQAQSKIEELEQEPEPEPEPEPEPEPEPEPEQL


Legend:
[1] = target: T1, human LAG3 (expressed on cells); experiment: cell-based KinExA; human LAG3 on BaF/3 cells; ratio to ADI-12126
[2] = target: T1, human LAG3 (expressed on cells); experiment: cell-based KinExA; BaF/3 cells stably transfected with human LAG3; n = 1
Protocol: (§1) The affinities of the anti-LAG3 antibodies for human and cynomolgous monkey LAG3 were determined using a cell based Kinetic Exclusion Assay (KinExA). Cell based KinExA can be used to measure the affinity of a molecule for a binding partner on a cell surface (Rathanaswami et al. Analylitical Biochemistry 373(1): 52-60 (2008); Xie et al. J. Immunol. Methods 304 (1-2): 1-14 (2005)). In this case, BaF/3 cells were stably transfected with human or cynomolgus monkey LAG3 proteins. Transfected cells or the parental BaF/3 control cell line were grown to a density of 1.7×10⁶ to 3.2×10⁶ cells per ml at 37° C., 120 RPM, 5% CO₂, in 1×RPMI 1640 media with 10% FBS, 10 ng/ml IL-3, 5 μg/ml puromycin. Cells were concentrated, mixed with 15 pM or 150 pM antibody in cell culture media and incubated 24 to 48 hours at room temperature while rotating at 20 to 30 RPM. Cells were present at a top concentration of 2×10⁷ cells per ml (parental BaF/3 or cynomolgus LAG3 transfectants) or 1×10⁷ cells per ml (human LAG3 transfectants) and diluted in a 2-fold, 18 member series. The cells were pelleted and free antibody in the supernatant was measured using a KinExA 3200 instrument (Sapidyne, Idaho, USA). […] Antibody on the beads was labeled with 1.5 μg/ml Alexa Fluor® 647 conjugated goat anti-human (Fab′)₂ (Jackson ImmunoResearch Laboratories), washed and the fluorescent signal was read all using the KinExA™ 3200. […]

[3] = target: T1, human LAG3 (expressed on cells); experiment: cell-based KinExA; BaF/3 cells stably transfected with human LAG3; n = 2
Protocol: as §1

[4] = target: T1, human LAG3 (expressed on cells); experiment: cell-based KinExA; BaF/3 cells stably transfected with human LAG3; n = 3
Protocol: as §1

[5] = target: T1, human LAG3 (expressed on cells); experiment: cell-based KinExA; BaF/3 cells stably transfected with human LAG3; average of n = 1-3
Protocol: as §1

[6] = target: T2, human LAG3-His tagged recombinant protein (human); experiment: SPR, Biacore T200; antibody captured, human LAG3-His as analyte, 1:1 Langmuir fit; n = 1
T2 construct: also called human LAG3-His protein; recombinant human LAG3
Protocol: (§2) Approximately 4000 RU of […], Fragment Specific (Jackson ImmunoResearch Catalog #115-006-071, Lot 81313) was immobilized via amine coupling chemistry onto a Series S CM4 sensor chip, catalog number BR-1005-34. Human anti-human LAG3 clones were injected over the immobilized anti-human surfaces at 1 ug/mL for a capture level of 40 RU. HBS-EP+ buffer (BR-1006-69) was used as the running buffer with a flow rate of 30 μL/min.
(§3) Varying concentrations of human LAG3-His protein ranging from 0.15 nM to 18.8 nM, at a flow rate of 40 μL/min were injected over the antibody surfaces. Following each injection cycle, the Series S CM4 chip surface was regenerated using one six second injection of 10 mM Glycine pH 1.5 solution followed by an injection of 12.5 mM NaOH solution at a flow rate of 60 μL/min.
(§4) Background subtraction binding sensorgrams were used for analyzing the rate constant of association (kₐ) and dissociation (kd), and the equilibrium dissociation constant KD. The resulting data sets were fitted with a 1:1 Langmuir Binding Model using the Biacore T200 evaluation software (version 2.0).
Target sequence in this assay (P18627 23-450): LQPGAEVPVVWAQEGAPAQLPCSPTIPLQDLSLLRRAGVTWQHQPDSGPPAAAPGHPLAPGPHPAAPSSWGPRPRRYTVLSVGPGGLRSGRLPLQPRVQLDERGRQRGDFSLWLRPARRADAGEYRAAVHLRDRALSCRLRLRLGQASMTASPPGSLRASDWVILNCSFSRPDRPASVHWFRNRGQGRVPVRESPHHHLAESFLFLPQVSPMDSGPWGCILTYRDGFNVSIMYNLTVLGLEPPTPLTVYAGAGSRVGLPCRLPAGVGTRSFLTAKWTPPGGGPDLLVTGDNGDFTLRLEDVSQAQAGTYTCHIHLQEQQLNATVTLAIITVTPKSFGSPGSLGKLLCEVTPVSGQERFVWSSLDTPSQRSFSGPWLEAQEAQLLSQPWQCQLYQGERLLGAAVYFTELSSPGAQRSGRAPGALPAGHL

[7] = target: T2, human LAG3-His tagged recombinant …; experiment: SPR, Biacore T200; antibody captured, human LAG3-His as analyte, 1:1 Langmuir fit; n = 2
Protocol: as §2, §3, §4
Target sequence in this assay (P18627 23-450): as above

[8] = target: T2, human LAG3-His tagged recombinant …; experiment: SPR, Biacore T200; antibody captured, human LAG3-His as analyte, 1:1 Langmuir fit; average
Protocol: as §2, §3, §4
Target sequence in this assay (P18627 23-450): as above

[9] = target: T2, human LAG3-His tagged recombinant …; experiment: SPR, Biacore T200; fold against the parental antibody, as printed in this row
Protocol: as §2, §3, §4

| KD/KD ref (ref = ADI-12126) [1] | Kd [2] [nM] | Kd [3] [nM] | Kd [4] [nM] | Kd [5] [nM] | Kd [6] [nM] | Kd [7] [nM] | Kd [8] [nM] | Fold weaker than ADI-12126 (M57, M115) IgG4 S228P/Kappa [9] [fold] | Binder |
| --- | --- | --- | --- | --- | --- | --- | --- | --- | --- |
| 0.8 | 0.015 | 0.025 | 0.013 | 0.018 |  |  |  |  | ADI-12126 M57G/M115L (antibody, V domains shown) VH: not shown VL: EIVLTQSPATLSLSPGERATLSCRASQSVSSYLAWYQQKPGQAPRLLIYDASNRATGIPARFSGSGSGTDFTLTISSLEPEDFAVYYCQQASIWPLTFGGGTKVEIKR |
|  |  |  |  |  | 0.282 | 0.25 | 0.266 |  | ADI-12126 (Q1E, M57V, M115L) IgG4 S228P/Kappa (antibody, V domains shown) VH: EVQLVQSGAEVKKPGASVKVSCKASGYTFTGYYMHWVRQAPGQGLEWMGWINANSGVTNYAQKFQGRVTMTRDTSISTAYMELSRLRSDDTAVYYCARDIYDSSDQLNVWGQGTLVTVSS VL: EIVLTQSPATLSLSPGERATLSCRASQSVSSYLAWYQQKPGQAPRLLIYDASNRATGIPARFSGSGSGTDFTLTISSLEPEDFAVYYCQQASIWPLTFGGGTKVEIKR |
|  |  |  |  |  | 0.032 | 0.034 | 0.033 |  | ADI-12126 (Q1E, M57Y, M115L) IgG4 S228P/Kappa (antibody, V domains shown) VH: EVQLVQSGAEVKKPGASVKVSCKASGYTFTGYYMHWVRQAPGQGLEWMGWINANSGYTNYAQKFQGRVTMTRDTSISTAYMELSRLRSDDTAVYYCARDIYDSSDQLNVWGQGTLVTVSS VL: EIVLTQSPATLSLSPGERATLSCRASQSVSSYLAWYQQKPGQAPRLLIYDASNRATGIPARFSGSGSGTDFTLTISSLEPEDFAVYYCQQASIWPLTFGGGTKVEIKR |
| 0.9 | 0.017 | 0.03 | 0.017 | 0.021 |  |  |  |  | ADI-12126 M57A/M115L (antibody, V domains shown) VH: EVQLVQSGAEVKKPGASVKVSCKASGYTFTGYYMHWVRQAPGQGLEWMGWINANSGATNYAQKFQGRVTMTRDTSISTAYMELSRLRSDDTAVYYCARDIYDSSDQLNVWGQGTLVTVSS VL: EIVLTQSPATLSLSPGERATLSCRASQSVSSYLAWYQQKPGQAPRLLIYDASNRATGIPARFSGSGSGTDFTLTISSLEPEDFAVYYCQQASIWPLTFGGGTKVEIKR |

Further lines, the binder ahead of its results:

| Binder | KD/KD ref (ref = ADI-12126) [1] | Kd [2] [nM] | Kd [3] [nM] | Kd [4] [nM] | Kd [5] [nM] | Kd [6] [nM] | Kd [7] [nM] | Kd [8] [nM] | Fold weaker than ADI-12126 (M57, M115) IgG4 S228P/Kappa [9] [fold] |
| --- | --- | --- | --- | --- | --- | --- | --- | --- | --- |
| ADI-12126 (Q1E, M57G, M115L) IgG4 S228P/Kappa (antibody, V domains shown, The parental residues are Q1, M57, M115) VH: not shown VL: EIVLTQSPATLSLSPGERATLSCRASQSVSSYLAWYQQKPGQAPRLLIYDASNRATGIPARFSGSGSGTDFTLTISSLEPEDFAVYYCQQASIWPLTFGGGTKVEIKR |  |  |  |  |  | 0.011 | 0.01 | 0.01 | 4.6 |
| ADI-12126 (Q1E, M57T, M115L) IgG4 S228P/Kappa (antibody, V domains shown) VH: EVQLVQSGAEVKKPGASVKVSCKASGYTFTGYYMHWVRQAPGQGLEWMGWINANSGTTNYAQKFQGRVTMTRDTSISTAYMELSRLRSDDTAVYYCARDIYDSSDQLNVWGQGTLVTVSS VL: EIVLTQSPATLSLSPGERATLSCRASQSVSSYLAWYQQKPGQAPRLLIYDASNRATGIPARFSGSGSGTDFTLTISSLEPEDFAVYYCQQASIWPLTFGGGTKVEIKR |  |  |  |  |  | 0.066 | 0.065 | 0.066 |  |
| ADI-12126 (Q1E, M57S, M115L) IgG4 S228P/Kappa (antibody, V domains shown) VH: EVQLVQSGAEVKKPGASVKVSCKASGYTFTGYYMHWVRQAPGQGLEWMGWINANSGSTNYAQKFQGRVTMTRDTSISTAYMELSRLRSDDTAVYYCARDIYDSSDQLNVWGQGTLVTVSS VL: EIVLTQSPATLSLSPGERATLSCRASQSVSSYLAWYQQKPGQAPRLLIYDASNRATGIPARFSGSGSGTDFTLTISSLEPEDFAVYYCQQASIWPLTFGGGTKVEIKR |  |  |  |  |  | 0.134 | 0.119 | 0.127 |  |
| ADI-12126 (Q1E, M57A, M115L) IgG4 S228P/Kappa (antibody, V domains shown) VH: EVQLVQSGAEVKKPGASVKVSCKASGYTFTGYYMHWVRQAPGQGLEWMGWINANSGATNYAQKFQGRVTMTRDTSISTAYMELSRLRSDDTAVYYCARDIYDSSDQLNVWGQGTLVTVSS VL: EIVLTQSPATLSLSPGERATLSCRASQSVSSYLAWYQQKPGQAPRLLIYDASNRATGIPARFSGSGSGTDFTLTISSLEPEDFAVYYCQQASIWPLTFGGGTKVEIKR |  |  |  |  |  | 0.013 | 0.013 | 0.013 |  |
